# Patent US20220306751A1 (MYTHIC THERAPEUTICS, published 2022)
# T1: CD123 Protein, His Tag, Acro Biosciences Cat. No. ILA-H52H6 (Homo sapiens (Human), UniProt P26951 19-305)
# T1 construct: Bought protein; not shown: His tag
# T1 sequence: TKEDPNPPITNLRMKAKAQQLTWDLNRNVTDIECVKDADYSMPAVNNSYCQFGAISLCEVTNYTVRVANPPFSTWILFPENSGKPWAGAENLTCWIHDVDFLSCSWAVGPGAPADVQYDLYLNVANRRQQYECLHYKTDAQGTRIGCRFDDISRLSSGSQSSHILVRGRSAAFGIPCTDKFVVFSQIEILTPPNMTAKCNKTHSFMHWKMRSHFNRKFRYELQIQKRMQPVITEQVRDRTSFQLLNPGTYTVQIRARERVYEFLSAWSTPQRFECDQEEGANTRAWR
# Molecular target: T1, CD123 Protein, His Tag, Acro …
# Assay: BLI, IgG on anti-human Fc sensor, 50 nM CD123, pH 7.4 and pH 5.4
# From the text: We selected IMGN632 (Heavy chain SEQ ID NO: 1, Light chain SEQ ID NO: 2) as a CD123-binding monoclonal antibody for pH engineering via histidine scanning. Briefly, CDRs in the heavy chain were identified using the methods described by Kabat et al (Kabat et al. (1992) Sequences of Proteins of Immunological Interest, DIANE publishing) and IMGT (Lefranc M P (1999) “The IMGT unique numbering for Immunoglobulins, T cell receptors and Ig-like domains” The Immunologist 7, 132-136), and for each CDR, residues falling under either or both Kabat and IMGT CDR definitions were called as CDR residues. To generate pH-dependent sequence variants, individual amino acid residues within the heavy chain CDRs were systematically substituted with a histidine, one at a time (MYT1252-MYT1292). In cases where the starting CDR residue was a histidine, it was mutated to an alanine. Antibody variants with only one histidine or alanine mutation in a heavy chain CDR were generated by co-transfection of Expi293 cells with a) one heavy chain sequence variant, and b) the corresponding starting ABPC light chain using methods known to the art. After allowing for four days of protein expression, cell culture supernatants were collected, quantified by SDS-PAGE analysis (FIG. 1), and the pH dependence of the variant was evaluated using biolayer interferometry (BLI) on an Octet RED 384 instrument. For constructs MYT1252, MYT1254-MYT1287, and MYT1289-1292, 104, of cell culture supernatant was diluted into 1904, of 1× PBST pH 7.4. For MYT1253 and MYT1288 254, and 504, of cell culture supernatant was diluted into 1754, and 1504, respectively. […] The resulting diluted supernatants were then captured on an anti-human Fc sensor (Forte Bio). A baseline was established using 1× PBST (50 mM Potassium Phosphate Buffer+150 mM NaCl+0.05% Tween 20) pH 7.4, and the sensor was associated with 50 nM of CD123 (CD123 Protein, His Tag, Acro Biosciences Cat. No. ILA-H52H6, Lot No. 1741d-89CF1-KB) in 1×PBST pH 7.4 for 120 sec to generate an association curve. In the dissociation phase, the antibody-antigen complex on the sensor was exposed to 1× PBST pH 7.4 for 300-600 sec. Baseline, association, and dissociation were repeated using 1×PBST pH 5.4 throughout in a separate condition.
row,binding result,Binder
1,binds,"MYT1253 (antibody, V domains shown, IgG) VH: QVQLVQSGAEVKKPGASVKVSCKASGHIFTSSIMHWVRQAPGQGLEWIGYIKPYNDGTKYNEKFKGRATLTSDRSTSTAYMELSSLRSEDTAVYYCAREGGNDYYDTMDYWGQGTLVTVSS VL: DIQMTQSPSSLSASVGDRVTITCRASQDINSYLSWFQQKPGKAPKTLIYRVNRLVDGVPSRFSGSGSGNDYTLTISSLQPEDFATYYCLQYDAFPYTFGQGTKVEIK"
2,binds,"MYT1257 (antibody, V domains shown, IgG) VH: QVQLVQSGAEVKKPGASVKVSCKASGYIFTHSIMHWVRQAPGQGLEWIGYIKPYNDGTKYNEKFKGRATLTSDRSTSTAYMELSSLRSEDTAVYYCAREGGNDYYDTMDYWGQGTLVTVSS VL: DIQMTQSPSSLSASVGDRVTITCRASQDINSYLSWFQQKPGKAPKTLIYRVNRLVDGVPSRFSGSGSGNDYTLTISSLQPEDFATYYCLQYDAFPYTFGQGTKVEIK"
3,binds,"MYT1269 (antibody, V domains shown, IgG) VH: QVQLVQSGAEVKKPGASVKVSCKASGYIFTSSIMHWVRQAPGQGLEWIGYIKPYNDHTKYNEKFKGRATLTSDRSTSTAYMELSSLRSEDTAVYYCAREGGNDYYDTMDYWGQGTLVTVSS VL: DIQMTQSPSSLSASVGDRVTITCRASQDINSYLSWFQQKPGKAPKTLIYRVNRLVDGVPSRFSGSGSGNDYTLTISSLQPEDFATYYCLQYDAFPYTFGQGTKVEIK"
4,binds,"MYT1252 (antibody, V domains shown, IgG) VH: QVQLVQSGAEVKKPGASVKVSCKASHYIFTSSIMHWVRQAPGQGLEWIGYIKPYNDGTKYNEKFKGRATLTSDRSTSTAYMELSSLRSEDTAVYYCAREGGNDYYDTMDYWGQGTLVTVSS VL: DIQMTQSPSSLSASVGDRVTITCRASQDINSYLSWFQQKPGKAPKTLIYRVNRLVDGVPSRFSGSGSGNDYTLTISSLQPEDFATYYCLQYDAFPYTFGQGTKVEIK"
5,binds,"MYT1267 (antibody, V domains shown, IgG) VH: QVQLVQSGAEVKKPGASVKVSCKASGYIFTSSIMHWVRQAPGQGLEWIGYIKPYHDGTKYNEKFKGRATLTSDRSTSTAYMELSSLRSEDTAVYYCAREGGNDYYDTMDYWGQGTLVTVSS VL: DIQMTQSPSSLSASVGDRVTITCRASQDINSYLSWFQQKPGKAPKTLIYRVNRLVDGVPSRFSGSGSGNDYTLTISSLQPEDFATYYCLQYDAFPYTFGQGTKVEIK"
6,binds,"MYT1268 (antibody, V domains shown, IgG) VH: QVQLVQSGAEVKKPGASVKVSCKASGYIFTSSIMHWVRQAPGQGLEWIGYIKPYNHGTKYNEKFKGRATLTSDRSTSTAYMELSSLRSEDTAVYYCAREGGNDYYDTMDYWGQGTLVTVSS VL: DIQMTQSPSSLSASVGDRVTITCRASQDINSYLSWFQQKPGKAPKTLIYRVNRLVDGVPSRFSGSGSGNDYTLTISSLQPEDFATYYCLQYDAFPYTFGQGTKVEIK"
7,binds,"MYT1266 (antibody, V domains shown, IgG) VH: QVQLVQSGAEVKKPGASVKVSCKASGYIFTSSIMHWVRQAPGQGLEWIGYIKPHNDGTKYNEKFKGRATLTSDRSTSTAYMELSSLRSEDTAVYYCAREGGNDYYDTMDYWGQGTLVTVSS VL: DIQMTQSPSSLSASVGDRVTITCRASQDINSYLSWFQQKPGKAPKTLIYRVNRLVDGVPSRFSGSGSGNDYTLTISSLQPEDFATYYCLQYDAFPYTFGQGTKVEIK"
8,binds,"MYT1265 (antibody, V domains shown, IgG) VH: QVQLVQSGAEVKKPGASVKVSCKASGYIFTSSIMHWVRQAPGQGLEWIGYIKHYNDGTKYNEKFKGRATLTSDRSTSTAYMELSSLRSEDTAVYYCAREGGNDYYDTMDYWGQGTLVTVSS VL: DIQMTQSPSSLSASVGDRVTITCRASQDINSYLSWFQQKPGKAPKTLIYRVNRLVDGVPSRFSGSGSGNDYTLTISSLQPEDFATYYCLQYDAFPYTFGQGTKVEIK"
9,binds,"MYT1260 (antibody, V domains shown, IgG) VH: QVQLVQSGAEVKKPGASVKVSCKASGYIFTSSIHHWVRQAPGQGLEWIGYIKPYNDGTKYNEKFKGRATLTSDRSTSTAYMELSSLRSEDTAVYYCAREGGNDYYDTMDYWGQGTLVTVSS VL: DIQMTQSPSSLSASVGDRVTITCRASQDINSYLSWFQQKPGKAPKTLIYRVNRLVDGVPSRFSGSGSGNDYTLTISSLQPEDFATYYCLQYDAFPYTFGQGTKVEIK"
10,binds,"MYT1259 (antibody, V domains shown, IgG) VH: QVQLVQSGAEVKKPGASVKVSCKASGYIFTSSHMHWVRQAPGQGLEWIGYIKPYNDGTKYNEKFKGRATLTSDRSTSTAYMELSSLRSEDTAVYYCAREGGNDYYDTMDYWGQGTLVTVSS VL: DIQMTQSPSSLSASVGDRVTITCRASQDINSYLSWFQQKPGKAPKTLIYRVNRLVDGVPSRFSGSGSGNDYTLTISSLQPEDFATYYCLQYDAFPYTFGQGTKVEIK"
11,binds,"MYT1254 (antibody, V domains shown, IgG) VH: QVQLVQSGAEVKKPGASVKVSCKASGYHFTSSIMHWVRQAPGQGLEWIGYIKPYNDGTKYNEKFKGRATLTSDRSTSTAYMELSSLRSEDTAVYYCAREGGNDYYDTMDYWGQGTLVTVSS VL: DIQMTQSPSSLSASVGDRVTITCRASQDINSYLSWFQQKPGKAPKTLIYRVNRLVDGVPSRFSGSGSGNDYTLTISSLQPEDFATYYCLQYDAFPYTFGQGTKVEIK"
12,binds,"MYT1261 (antibody, V domains shown, IgG) VH: QVQLVQSGAEVKKPGASVKVSCKASGYIFTSSIMAWVRQAPGQGLEWIGYIKPYNDGTKYNEKFKGRATLTSDRSTSTAYMELSSLRSEDTAVYYCAREGGNDYYDTMDYWGQGTLVTVSS VL: DIQMTQSPSSLSASVGDRVTITCRASQDINSYLSWFQQKPGKAPKTLIYRVNRLVDGVPSRFSGSGSGNDYTLTISSLQPEDFATYYCLQYDAFPYTFGQGTKVEIK"
13,binds,"MYT1255 (antibody, V domains shown, IgG) VH: QVQLVQSGAEVKKPGASVKVSCKASGYIHTSSIMHWVRQAPGQGLEWIGYIKPYNDGTKYNEKFKGRATLTSDRSTSTAYMELSSLRSEDTAVYYCAREGGNDYYDTMDYWGQGTLVTVSS VL: DIQMTQSPSSLSASVGDRVTITCRASQDINSYLSWFQQKPGKAPKTLIYRVNRLVDGVPSRFSGSGSGNDYTLTISSLQPEDFATYYCLQYDAFPYTFGQGTKVEIK"
14,binds,"MYT1258 (antibody, V domains shown, IgG) VH: QVQLVQSGAEVKKPGASVKVSCKASGYIFTSHIMHWVRQAPGQGLEWIGYIKPYNDGTKYNEKFKGRATLTSDRSTSTAYMELSSLRSEDTAVYYCAREGGNDYYDTMDYWGQGTLVTVSS VL: DIQMTQSPSSLSASVGDRVTITCRASQDINSYLSWFQQKPGKAPKTLIYRVNRLVDGVPSRFSGSGSGNDYTLTISSLQPEDFATYYCLQYDAFPYTFGQGTKVEIK"
15,binds,"MYT1263 (antibody, V domains shown, IgG) VH: QVQLVQSGAEVKKPGASVKVSCKASGYIFTSSIMHWVRQAPGQGLEWIGYHKPYNDGTKYNEKFKGRATLTSDRSTSTAYMELSSLRSEDTAVYYCAREGGNDYYDTMDYWGQGTLVTVSS VL: DIQMTQSPSSLSASVGDRVTITCRASQDINSYLSWFQQKPGKAPKTLIYRVNRLVDGVPSRFSGSGSGNDYTLTISSLQPEDFATYYCLQYDAFPYTFGQGTKVEIK"
16,binds,"MYT1256 (antibody, V domains shown, IgG) VH: QVQLVQSGAEVKKPGASVKVSCKASGYIFHSSIMHWVRQAPGQGLEWIGYIKPYNDGTKYNEKFKGRATLTSDRSTSTAYMELSSLRSEDTAVYYCAREGGNDYYDTMDYWGQGTLVTVSS VL: DIQMTQSPSSLSASVGDRVTITCRASQDINSYLSWFQQKPGKAPKTLIYRVNRLVDGVPSRFSGSGSGNDYTLTISSLQPEDFATYYCLQYDAFPYTFGQGTKVEIK"
17,binds,"MYT1262 (antibody, V domains shown, IgG) VH: QVQLVQSGAEVKKPGASVKVSCKASGYIFTSSIMHWVRQAPGQGLEWIGHIKPYNDGTKYNEKFKGRATLTSDRSTSTAYMELSSLRSEDTAVYYCAREGGNDYYDTMDYWGQGTLVTVSS VL: DIQMTQSPSSLSASVGDRVTITCRASQDINSYLSWFQQKPGKAPKTLIYRVNRLVDGVPSRFSGSGSGNDYTLTISSLQPEDFATYYCLQYDAFPYTFGQGTKVEIK"
